This note sets out measurements from article PMC11814294, “A pathogen effector HaRxL10 hijacks the circadian clock component CHE to perturb both plant development and immunity” (Nature Communications, 2025).

Assay [1] concerns the target T1, GST-His-ZTL (Arabidopsis thaliana, UniProt Q94BT6 1-609, RED-NHS 2nd Generation fluorescent label (in the MST assay only)).
T1 construct: Vector pET-42a (GST-tag); Printed molecular weight 99 kD; Called GST-His-ZTL in the pull-downs and GST-ZTL in the MST assay; also called GST-ZTL; ZEITLUPE; source: E. coli BL21 (DE3), purified (GST-beads); not shown: GST, N-terminal, kept; His, N-terminal, kept
The assay is described as follows: MST; 50 nM RED-NHS-labelled GST-ZTL with serially diluted His-CHE, without or with 5 uM His-HaRxL10; 50 mM Tris-HCl pH 7.4, 150 mM NaCl, 10 mM MgCl2, 0.1% Pluronic F-127, Tween-20; 25 °C; Monolith NT.115. As to conditions: both partners purified.

The target in assay [2] is T1, GST-His-ZTL. The assay is described as follows: pull-down; MBP-His-CHE and GST-His-ZTL in equal amounts (about 5 ug), amylose resin, MBP column buffer (20 mM Tris-HCl pH 7.4, 0.2 M NaCl, 1 mM EDTA), 2-3 h at 4 °C; blots with anti-MBP and anti-GST. As to conditions: both partners purified.

T1 sequence (Q94BT6 whole entry): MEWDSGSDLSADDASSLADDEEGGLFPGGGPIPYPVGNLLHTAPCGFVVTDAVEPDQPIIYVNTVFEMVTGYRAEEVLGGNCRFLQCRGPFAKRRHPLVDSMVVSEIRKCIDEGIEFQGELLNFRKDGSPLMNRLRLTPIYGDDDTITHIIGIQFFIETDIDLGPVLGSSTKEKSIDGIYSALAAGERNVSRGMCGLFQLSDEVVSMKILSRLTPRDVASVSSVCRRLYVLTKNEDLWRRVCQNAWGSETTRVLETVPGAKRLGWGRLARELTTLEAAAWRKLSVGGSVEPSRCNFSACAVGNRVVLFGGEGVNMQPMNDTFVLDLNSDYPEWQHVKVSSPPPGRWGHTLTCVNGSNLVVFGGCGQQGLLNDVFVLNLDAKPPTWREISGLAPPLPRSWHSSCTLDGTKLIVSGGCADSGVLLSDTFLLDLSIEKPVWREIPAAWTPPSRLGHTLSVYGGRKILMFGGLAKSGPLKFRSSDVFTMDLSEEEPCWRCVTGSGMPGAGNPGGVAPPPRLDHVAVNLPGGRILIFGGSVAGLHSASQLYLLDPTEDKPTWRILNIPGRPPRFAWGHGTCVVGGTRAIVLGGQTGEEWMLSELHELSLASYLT

B1: His-CHE (natural protein)
chain: not shown
notes: Vector pET28a (His-tag); source: E. coli BL21 (DE3), purified (Ni-NTA); not shown: His, N-terminal, kept
Consider B1, for which the binding result in the assay with GST-His-ZTL [1] is given as “binds”.

B2: MBP-His-CHE (natural protein)
chain: not shown
notes: Vector pQLink (MBP-His-tag); Printed molecular weight 70.1 kD; source: E. coli BL21 (DE3), purified (amylose resin); not shown: MBP, N-terminal, kept; His, N-terminal, kept
With B2, the binding result in the assay with GST-His-ZTL [2] is “binds”.
